Laboratory results from paper PMC2132842 (The Journal of Cell Biology, 1998).
One block for each binder: values may come before it.

What was measured:
GAL4/Imp βΔ1/261 = GAL4/Imp βΔ1/261 (human, UniProt Q14974 262-876); assay: two-hybrid
GAL4/CAS = target: T1, GAL4/CAS (human, UniProt P55060 1-971); assay: two-hybrid
T1 sequence (looked up): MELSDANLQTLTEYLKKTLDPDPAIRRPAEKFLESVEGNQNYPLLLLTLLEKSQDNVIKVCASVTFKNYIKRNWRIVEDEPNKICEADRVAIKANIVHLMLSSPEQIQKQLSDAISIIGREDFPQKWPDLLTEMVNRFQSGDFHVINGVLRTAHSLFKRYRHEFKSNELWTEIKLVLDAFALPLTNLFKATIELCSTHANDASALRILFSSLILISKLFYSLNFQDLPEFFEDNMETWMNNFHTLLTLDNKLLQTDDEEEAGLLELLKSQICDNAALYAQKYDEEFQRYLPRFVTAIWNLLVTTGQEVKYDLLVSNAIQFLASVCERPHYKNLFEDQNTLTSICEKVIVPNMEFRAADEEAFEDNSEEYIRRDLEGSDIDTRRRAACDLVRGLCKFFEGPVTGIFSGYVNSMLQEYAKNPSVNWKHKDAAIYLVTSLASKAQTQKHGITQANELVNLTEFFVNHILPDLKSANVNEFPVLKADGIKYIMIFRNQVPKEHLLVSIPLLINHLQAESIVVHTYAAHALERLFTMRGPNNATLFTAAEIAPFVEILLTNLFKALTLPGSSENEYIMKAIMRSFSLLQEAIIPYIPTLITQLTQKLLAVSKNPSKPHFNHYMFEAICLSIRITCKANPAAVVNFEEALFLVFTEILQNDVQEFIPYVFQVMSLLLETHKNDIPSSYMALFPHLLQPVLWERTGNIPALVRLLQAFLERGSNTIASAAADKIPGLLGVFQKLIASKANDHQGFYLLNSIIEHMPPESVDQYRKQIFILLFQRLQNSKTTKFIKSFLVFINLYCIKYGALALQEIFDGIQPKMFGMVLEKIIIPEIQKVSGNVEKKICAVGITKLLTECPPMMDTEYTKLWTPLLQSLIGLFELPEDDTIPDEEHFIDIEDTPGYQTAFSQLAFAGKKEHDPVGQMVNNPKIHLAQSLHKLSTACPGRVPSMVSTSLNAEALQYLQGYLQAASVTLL

GAL4/Imp βΔ1/261, sequence (Q14974 262-876, stated change not applied): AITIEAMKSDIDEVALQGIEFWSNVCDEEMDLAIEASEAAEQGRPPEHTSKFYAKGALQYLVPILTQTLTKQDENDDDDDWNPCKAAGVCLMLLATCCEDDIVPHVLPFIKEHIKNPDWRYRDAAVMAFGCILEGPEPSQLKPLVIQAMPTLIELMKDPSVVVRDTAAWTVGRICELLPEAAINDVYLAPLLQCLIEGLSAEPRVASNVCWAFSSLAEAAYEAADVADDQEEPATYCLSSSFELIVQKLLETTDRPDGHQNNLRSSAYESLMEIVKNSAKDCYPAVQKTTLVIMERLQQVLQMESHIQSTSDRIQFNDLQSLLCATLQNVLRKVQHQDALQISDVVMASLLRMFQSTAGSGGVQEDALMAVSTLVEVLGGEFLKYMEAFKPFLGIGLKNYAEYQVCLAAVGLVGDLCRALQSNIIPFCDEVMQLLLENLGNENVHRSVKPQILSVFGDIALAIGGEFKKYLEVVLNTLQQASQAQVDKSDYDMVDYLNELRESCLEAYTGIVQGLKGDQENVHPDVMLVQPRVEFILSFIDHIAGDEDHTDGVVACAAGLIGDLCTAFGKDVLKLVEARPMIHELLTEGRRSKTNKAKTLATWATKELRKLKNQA

β-gal activity (GAL4/Imp βΔ1/261): 2350 mOD/ml
β-gal activity (GAL4/CAS): 101 mOD/ml
B1: VP16/Imp α1 (natural protein)
chain: not shown

β-gal activity (GAL4/Imp βΔ1/261): 1850 mOD/ml
β-gal activity (GAL4/CAS): 174 mOD/ml
B2: VP16/Imp α4 (natural protein, human, UniProt O00505 1-521, looked up)
chain: MAENPSLENHRIKSFKNKGRDVETMRRHRNEVTVELRKNKRDEHLLKKRNVPQEESLEDSDVDADFKAQNVTLEAILQNATSDNPVVQLSAVQAARKLLSSDRNPPIDDLIKSGILPILVKCLERDDNPSLQFEAAWALTNIASGTSAQTQAVVQSNAVPLFLRLLRSPHQNVCEQAVWALGNIIGDGPQCRDYVISLGVVKPLLSFISPSIPITFLRNVTWVIVNLCRNKDPPPPMETVQEILPALCVLIYHTDINILVDTVWALSYLTDGGNEQIQMVIDSGVVPFLVPLLSHQEVKVQTAALRAVGNIVTGTDEQTQVVLNCDVLSHFPNLLSHPKEKINKEAVWFLSNITAGNQQQVQAVIDAGLIPMIIHQLAKGDFGTQKEAAWAISNLTISGRKDQVEYLVQQNVIPPFCNLLSVKDSQVVQVVLDGLKNILIMAGDEASTIAEIIEECGGLEKIEVLQQHENEDIYKLAFEIIDQYFSGDDIDEDPCLIPEATQGGTYNFDPTANLQTKEFNF
